From US20230159659A1 come the findings set out here.

The target in assay [1] is Papain from papaya latex (Sigma) (papaya) (UniProt P00784).
The target is the same in assay [2]. The source holds these as a separate data set.

With “Recombinant Human Cystatin SN Protein (recombinant CST1, R&D Systems)”, the protease activity (OD), Protease Assay Kit in assay [1] was determined as 0.0005 OD.
As to “Recombinant human Cystatin SA protein (recombinant CST2, Abcam)”, the protease activity (% of papain alone), Protease Assay Kit in assay [2] came to 64.3%.
